How the values were obtained:
[1] = molecular target: the molecule itself; assay: native gel or EMSA; native PAGE of the purified proteins; conditions not given
[2] = molecular target: the molecule itself; assay: MST; homodimerisation (dimer to monomers); 100 nM Red-NHS-labelled apo-protein titrated with unlabelled apo-protein of the same variant (180 uM-5.5 nM ZnT8cR or 124 uM-3.8 nM ZnT8cW); 10 mM potassium phosphate pH 8, 60 mM NaCl, 20 mM sucrose, 100 uM TCEP, 1 mM EDTA, 0.05% Tween-20; 25 °C; Monolith NT.115

Protein | stoichiometry N [1] | Kd [2] [µM]
R325 variant of ZnT8 CTD (aa267-369) (domain or fragment, human, UniProt Q8IWU4 267-369, looked up, amine-reactive Red-NHS dye (Monolith NT.115 labelling kit) on the labelled copy in MST; the titrated copy unlabelled, human zinc transporter ZnT8 (SLC30A8), C-terminal cytosolic domain, residues 267-369, Arg at position 325; numbers count on the full-length human ZnT8 long isoform (Ensembl transcript SLC30A8-002); A TEV protease cleavage site stands between the N-terminal hexahistidine tag and the domain (vector pET6H); Calculated monomer mass with tag and TEV site 13.3 kDa; also called ZnT8cR; apo-ZnT8cR; …) LKDFSILLMEGVPKSLNYSGVKELILAVDGVLSVHSLHIWSLTMNQVILSAHVATAASRDSQVVRREIAKALSKSFTMHSLTIQMESPVDQDPDCLFCEDPCD | 2 | 4.3
W325 variant of ZnT8 CTD (aa267-369) (domain or fragment, human, UniProt Q8IWU4 267-369, looked up, amine-reactive Red-NHS dye (Monolith NT.115 labelling kit) on the labelled copy in MST; the titrated copy unlabelled, numbers count on the full-length human ZnT8 long isoform (Ensembl transcript SLC30A8-002); A TEV protease cleavage site stands between the N-terminal hexahistidine tag and the domain (vector pET6H); also called ZnT8cW; apo-ZnT8cW; source: apo form made with TCEP and EDTA; not shown: His6, N-terminal, kept) LKDFSILLMEGVPKSLNYSGVKELILAVDGVLSVHSLHIWSLTMNQVILSAHVATAASWDSQVVRREIAKALSKSFTMHSLTIQMESPVDQDPDCLFCEDPCD | 2 | 1.8
